This data set relates to MS2 coat protein. Nature of the data set: apparent KD of MS2 coat protein; designed switch direction (-1 OFF switch, 1 ON switch): -1; higher = weaker reporter binding. The method, boiled down:
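Designed RNA switches were transcribed on Illumina chips by stalled E. coli RNA polymerase and titrated with SNAP-549-labelled MS2 coat protein from 0.7 or 1.5 nM, doubling to 3 µM. Step length ran from 0.8–1.5 h at the lowest concentration to 10–20 min at the highest. The apparent KD is the median over clusters for each design, from curve-fitted normalised cluster fluorescence.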

Where [1] appears, read: Eterna round: R95, input ligand: FMN 200 uM.
[2] abbreviates: Eterna round: R95, input ligand: microRNA oligo, concentration not stated.
The mark [3] stands for this setting: Eterna round: R95, input ligand: none.
Where [4] appears, read: input ligand: microRNA oligo, concentration not stated.

Take “CUGAGGUAGCGGUCCUAUGACAUGAGGAUCACCCAUGUACCUUGCUUUGAGCUAUUUGCUCGUCUUAUGAUUCUCGG [Mat - Sensor v3 - turn-off var 1 - JL Mod - D40] (puzzle: Sensor v3, turn-off variant 1)”: the “apparent KD of MS2 coat protein” value under setting [1] turned out to be 457 nM, the “apparent KD of MS2 coat protein” value under setting [2] came to 355 nM and the “apparent KD of MS2 coat protein” value under setting [3] was 545 nM.

On to “GAGGAGCAAGGAUAUACGAGGAUAUGGAAGGUUGGAGAGUGACAUGAGGAUCACCCAUGUAGAAGGUGCGAGGG [JR_Exclu2_Sub097] (puzzle: Exclusion 2)”, for which the “apparent KD of MS2 coat protein” value under setting [2] amounted to 43.4 nM.

“GCGUAGUAUGUAGGAUAUCGGUCAGUUUCUGAUCGAGAAGGACAUGAGGAUCACCCAUGUAAAACGUCCGGUUUCUGGAUACGC [JL ENG1 3.57] (Eterna round: R96, puzzle: Exclusion NG 1)”: the “apparent KD of MS2 coat protein” value by setting is: (input ligand: FMN 200 uM) 27.5 nM; under setting [4], 16.3 nM; (input ligand: none) 23 nM.

As to “GGAUCGAGUGUGAGGAUAUGCUGGUCCUUGGAUCAGCAGAAGGCACAUGAGGAUCACCCAUGUGAAGACGGUCC [JL bmx4 3.16] (Eterna round: R96, puzzle: Brourd's mod of Exclusion 4)”, the “apparent KD of MS2 coat protein” value under setting [4] stood at 25.9 nM.

For “UUUCCGGCGCGGGUUUUUUACAUGAGGAUCACCCAUGUCCUCUGCUUGUCUUGUCUUGGGCUUUUUUUGGGUUCGGG [-19, -39.7 kcal, A 8%] (Eterna round: R97, puzzle: Sensor, turn-off variant 1)”, under “input ligand: FMN 200 uM”, the “apparent KD of MS2 coat protein” value worked out at 697 nM.

On to “AGUUGGCGAGGAUAUACAUGAGGAUCACCCAUGUGAAAUCCAAGUGAGGAAAUGAAAAGUAGAAGGCGCUGACA [Mod of Mat 23 - Jieux - Exclusion 3] (Eterna round: R97, puzzle: Exclusion 3)”, for which the “apparent KD of MS2 coat protein” value is, setting by setting: (input ligand: FMN 200 uM) 50 nM; (input ligand: none) 20.8 nM.

On to “AGUACUAACACGAAAGUGUUAGUACAAUAAGCUUGUGAAACAUGAGGAUCACCCAUGUCCUCAUAUGCUCGUCUUAU [salish99_TOv2_r3_053] (puzzle: Sensor v3, turn-off variant 2)”, for which the “apparent KD of MS2 coat protein” value came out at 471 nM under setting [1], 822 nM under setting [2] and 641 nM under setting [3].

As for “AAAAAGGCAGGAUAUGCAUACACACAAAAAAAAAAACUGGGACAUGAGGAUCACCCAUGUAGAAGGGCCAAAAA [Dora Explored 8 - Jieux - Exclusion 2] (Eterna round: R96, puzzle: Exclusion 2)”, the “apparent KD of MS2 coat protein” value (input ligand: FMN 200 uM) is 60.1 nM, the “apparent KD of MS2 coat protein” value under setting [4] was determined as 53.7 nM and the “apparent KD of MS2 coat protein” value (input ligand: none) was 54.1 nM.

Consider “GCAUUGAGUGUGAGGAUAUGCUGGUCCUAAGAUCAGCAGAAGGCACAUGAGGAUCACCCAUGUGAAAACAAUGC [Mat - Exclusion 4 - JL Mod - D65] (puzzle: Brourd's mod of Exclusion 4)”, for which the “apparent KD of MS2 coat protein” value reads like this: under setting [1], 102 nM; under setting [2], 15.2 nM; under setting [3], 17.4 nM.

On to “GCAUCACAUGUCAGGAUAUGCUGUACCUUGGUACAGCAGAAGGGACAUGAGGAUCACCCAUGUGCCUAUGAUGC [JL-BMX4-4.11] (Eterna round: R97, puzzle: Brourd's mod of Exclusion 4)”, for which the “apparent KD of MS2 coat protein” value reads like this: (input ligand: FMN 200 uM) 555 nM; (input ligand: none) 59.3 nM.

“ACCGUGUGAGGAUAUCCGUAGCUGAGGCACCUCGCAAACAUGGAGAAGGCACAUGAGGAUCACCCAUGUGAACC [Eternabot (Original) Solution 27] (Eterna round: R97, puzzle: Exclusion 4)”: the “apparent KD of MS2 coat protein” value came to 47.1 nM (input ligand: FMN 200 uM) and 23.8 nM (input ligand: none).

On to “AGAGUGCUGCGAGGAUAUACAUGAGGAUCACCCAUGUGGAUCUGUGAGGCUUUGCCUCACAGGAUGUAGAAGGCGCAGUACUCA [Mat - Exclusion NG 2 - Mod of JL - D48] (Eterna round: R96, puzzle: Exclusion NG 2)”, for which the “apparent KD of MS2 coat protein” value was 178 nM (input ligand: FMN 200 uM), 18.2 nM under setting [4] and 25.4 nM (input ligand: none).

Consider “UUUAAUGGAAUUAAGAUCACAUGAGGAUCACCCAUGUAUAUAUAGGAUAUCAGCUCGUGUAGAGCUGAGAAGGAUAUAUACAUA [ExNG3/6-B3] (Eterna round: R96, puzzle: Exclusion NG 3)”, for which the “apparent KD of MS2 coat protein” value is, setting by setting: (input ligand: FMN 200 uM) 208 nM; under setting [4], 344 nM; (input ligand: none) 185 nM.

For “AAUAACAGAGGAUAUACUAUUUUAUGUGUUUAUUGUUUUAAACAUGAGGAUCACCCAUGUAGAAGGCUGAGUAA [JMF 31] (puzzle: Exclusion 2)”, under setting [2], the “apparent KD of MS2 coat protein” value worked out at 37.4 nM.

With “UCAUGUUAGCAGGAUAUGCUAUUUAUUUUUUAUGCAGAAGGGCUUACAUGAGGAUCACCCAUGUGUUAGGUUUU [JR_E6_Sub073] (Eterna round: R96, puzzle: Exclusion 6)”, the “apparent KD of MS2 coat protein” value runs as follows: (input ligand: FMN 200 uM) 34.8 nM; under setting [4], 41.5 nM; (input ligand: none) 70.6 nM.

Regarding “AAUUUACAUGAGGAUCACCCAUGUGAGGAUAUAUACAAAGAAGUGUUAGUAAGAAUGUAUAGAAGGCGCGUGAU [JR_Exc1_Sub040] (Eterna round: R97, puzzle: Exclusion 1)”, the “apparent KD of MS2 coat protein” value is, setting by setting: (input ligand: FMN 200 uM) 71.4 nM; (input ligand: none) 58.6 nM.

Turning to “UAAUAACAAGCGAGAUCCUACAUGAGGAUCACCCAUGUGCUCGUCUUAUAAGGUACUGUGACGAAAGUCACGGUACC [Eli 87 + Mat D67] (Eterna round: R97, puzzle: Sensor, turn-off variant 1)”, the “apparent KD of MS2 coat protein” value reads like this: (input ligand: FMN 200 uM) 17.9 nM; (input ligand: none) 20.1 nM.

Take “CAUACGGCAGGAUAUGCGUGGCCAUCUUAGCUCUACCUAAGACAUGAGGAUCACCCAUGUAGAAGGGUUACAUA [Eternabot (Original) Solution 41] (Eterna round: R97, puzzle: Exclusion 2)”: the “apparent KD of MS2 coat protein” value (input ligand: FMN 200 uM) stood at 20.5 nM and the “apparent KD of MS2 coat protein” value (input ligand: none) amounted to 19.8 nM.

With “GAUUAACAUGAGGAUCACCCAUGUGAGGAUAUACGAGAAUAGAUUUCGAUCAGAUAGAGUAGAAGGCACAGAUA [EX1 #1] (Eterna round: R97, puzzle: Exclusion 1)”, the “apparent KD of MS2 coat protein” value is 44.9 nM (input ligand: FMN 200 uM) and 27 nM (input ligand: none).

For the sequence “GCCGAUUAAGUCAGGAUAUACCUAUGGAUACAUAGGUAGAAGGGACAUGAGGAUCACCCAUGUUCCUCACCGGC [Fiskers BMX 4 - 15] (puzzle: Brourd's mod of Exclusion 4)”, the “apparent KD of MS2 coat protein” value under setting [2] was found to be 12 nM.

As for “ACCUUACUGGUCAGGAUAUACAGUCUUUGGUGUGUGUAGAAGGGACAUGAGGAUCACCCAUGUAGGUUGCAGUA [alecazam60] (Eterna round: R97, puzzle: Brourd's mod of Exclusion 4)”, the “apparent KD of MS2 coat protein” value is, setting by setting: (input ligand: FMN 200 uM) 77.6 nM; (input ligand: none) 67.7 nM.

With “AGAAGACAUGAGGAUCACCCAUGUAAGGAUAUCGAAGGUAAGAGAGGAAAGAAGGGAACGAGAAGGUACAGGUG [JR_Exclu1_Sub096] (puzzle: Exclusion 1)”, the “apparent KD of MS2 coat protein” value reads like this: under setting [1], 91.6 nM; under setting [2], 107 nM; under setting [3], 156 nM.

On to “UCAUGUUAGCAGGAUAUGCUAUUUAUUUUUUAUGCAGAAGGGCUUACAUGAGGAUCACCCAUGUAUUAAGUUUU [JR_E6_Sub074] (puzzle: Exclusion 6)”, for which, under setting [2], the “apparent KD of MS2 coat protein” value came to 115 nM.

For the sequence “UACAUGAGGAUCACCCAUGUUUUGUCGUGUAUGGUAUUUAUCUAGGAUAUCAAUUUAUUUAUUUAUGAGAAGGAGAAUAUUAAU [JMF's solution 5] (Eterna round: R96, puzzle: Exclusion NG 3)”, the “apparent KD of MS2 coat protein” value was 36.3 nM (input ligand: FMN 200 uM), 28.1 nM under setting [4] and 41.2 nM (input ligand: none).

Turning to “UGUUGUCGCGCAGGAUAUGAGGAUCACCCAUAUAAAGGAUAUGAAAAGAAGGUUCUGAGGAUCACCCAGAAGGGCGGGACAACU [pwkr exNG2 2xF5 2xFMN.18] (Eterna round: R96, puzzle: Exclusion NG 2)”, the “apparent KD of MS2 coat protein” value is, setting by setting: (input ligand: FMN 200 uM) 347 nM; under setting [4], 49 nM; (input ligand: none) 62.6 nM.

As to “GAGGGUUAAGGAUAUACAUGAGGAUCACCCAUGUAUGGCAAGCCAUAAUCCUCAUUAAGUAGAAGGUAACCUUC [Edederle] (puzzle: Exclusion 3)”, under setting [2], the “apparent KD of MS2 coat protein” value came to 11.8 nM.

For the sequence “AAAACCAGAGGAUAUGCGCAUAGAUCAGACUUUGUUUCUGAACAUGAGGAUCACCCAUGUAGAAGGCUGUAAAA [Ex2 #82] (Eterna round: R97, puzzle: Exclusion 2)”, the “apparent KD of MS2 coat protein” value reads like this: (input ligand: FMN 200 uM) 27.3 nM; (input ligand: none) 20.5 nM.

Consider “GACUGCUGAGGAUAUACAUGAGGAUCACCCAUGUGCUUCAGCUAGGAGACUAGCAUUGGUAGAAGGUAGUAGUC [LRO-Excl3-03] (puzzle: Exclusion 3)”, for which, under setting [2], the “apparent KD of MS2 coat protein” value came to 10.3 nM.

With “GGAAGGCGAGGAUAUACAAUAAAGAAAGGGAAAGACGUGAGACAUGAGGAUCACCCAUGUAGAAGGCGCGGAGA [AK-MS2ROC-r4-exclusion2-12] (Eterna round: R97, puzzle: Exclusion 2)”, the “apparent KD of MS2 coat protein” value by setting is: (input ligand: FMN 200 uM) 40.1 nM; (input ligand: none) 32.4 nM.

Consider “UAUAUAUAGUAAGGAUAUGUAUUUAUUUGAUAAACAGAAGGUACUGACAUGAGGAUCACCCAUGUUUUAGUGUGGGCAUGUAGA [JMF's solution 20] (Eterna round: R96, puzzle: Exclusion NG 1)”, for which the “apparent KD of MS2 coat protein” value under setting [4] turned out to be 69.9 nM.

With “ACAAGCUCUGUGGGUGGUGACAUGAGGAUCACCCAUGUUUUGCUCGUCUUGUGCCGGCCGGCCCGCGGCCGGCCGGC [-40.6, -69.5, A 12%] (Eterna round: R97, puzzle: Sensor, turn-off variant 1)”, the “apparent KD of MS2 coat protein” value (input ligand: FMN 200 uM) was 718 nM and the “apparent KD of MS2 coat protein” value (input ligand: none) was determined as 885 nM.

For the origin of these results see the supplement of paper PMC9170038.
